{"source": "patent US20220229068A1", "about": "“DETECTION OF PROTEIN TO PROTEIN INTERACTIONS” (THE GOVERNING COUNCIL OF THE UNIVERSITY OF TORONTO, priority 2019, published 2022)", "experiment_in_all_cases": "SIMPL ELISA, bait-IN/prey-CIC", "key": {"[1]": {"biological_target": "T1, NRG1 (prey, CIC format) (human) (UniProt Q02297)", "T1 sequence (looked up)": "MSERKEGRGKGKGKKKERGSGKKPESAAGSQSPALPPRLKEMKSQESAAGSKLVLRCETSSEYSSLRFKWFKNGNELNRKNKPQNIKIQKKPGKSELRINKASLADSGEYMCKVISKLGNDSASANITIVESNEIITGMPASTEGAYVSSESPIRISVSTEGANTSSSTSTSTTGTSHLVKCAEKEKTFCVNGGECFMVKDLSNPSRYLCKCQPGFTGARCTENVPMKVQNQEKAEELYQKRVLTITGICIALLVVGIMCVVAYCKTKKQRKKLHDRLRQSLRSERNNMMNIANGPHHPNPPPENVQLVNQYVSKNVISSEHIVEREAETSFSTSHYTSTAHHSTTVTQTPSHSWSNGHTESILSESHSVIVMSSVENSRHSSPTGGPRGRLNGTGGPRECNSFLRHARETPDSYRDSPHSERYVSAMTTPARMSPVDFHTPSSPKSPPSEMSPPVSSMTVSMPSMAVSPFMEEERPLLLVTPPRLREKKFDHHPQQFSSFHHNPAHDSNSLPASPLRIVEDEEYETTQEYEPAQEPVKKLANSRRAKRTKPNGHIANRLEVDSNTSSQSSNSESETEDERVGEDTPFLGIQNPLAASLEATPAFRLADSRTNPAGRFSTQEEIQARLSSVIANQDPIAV"}, "[2]": {"biological_target": "T2, PEX19 (prey, CIC format) (human) (UniProt P40855)", "T2 sequence (looked up)": "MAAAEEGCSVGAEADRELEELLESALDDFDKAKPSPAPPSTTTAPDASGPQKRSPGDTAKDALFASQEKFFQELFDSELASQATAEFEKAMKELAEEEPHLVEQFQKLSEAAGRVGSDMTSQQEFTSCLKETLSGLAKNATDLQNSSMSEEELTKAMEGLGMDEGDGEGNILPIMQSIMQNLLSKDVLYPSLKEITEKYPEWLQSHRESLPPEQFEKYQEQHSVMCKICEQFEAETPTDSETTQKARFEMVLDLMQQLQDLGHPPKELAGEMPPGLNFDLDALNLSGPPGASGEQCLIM"}, "[3]": {"biological_target": "T3, NOD1 (prey, CIC format) (human) (UniProt Q9Y239)", "T3 sequence (looked up)": "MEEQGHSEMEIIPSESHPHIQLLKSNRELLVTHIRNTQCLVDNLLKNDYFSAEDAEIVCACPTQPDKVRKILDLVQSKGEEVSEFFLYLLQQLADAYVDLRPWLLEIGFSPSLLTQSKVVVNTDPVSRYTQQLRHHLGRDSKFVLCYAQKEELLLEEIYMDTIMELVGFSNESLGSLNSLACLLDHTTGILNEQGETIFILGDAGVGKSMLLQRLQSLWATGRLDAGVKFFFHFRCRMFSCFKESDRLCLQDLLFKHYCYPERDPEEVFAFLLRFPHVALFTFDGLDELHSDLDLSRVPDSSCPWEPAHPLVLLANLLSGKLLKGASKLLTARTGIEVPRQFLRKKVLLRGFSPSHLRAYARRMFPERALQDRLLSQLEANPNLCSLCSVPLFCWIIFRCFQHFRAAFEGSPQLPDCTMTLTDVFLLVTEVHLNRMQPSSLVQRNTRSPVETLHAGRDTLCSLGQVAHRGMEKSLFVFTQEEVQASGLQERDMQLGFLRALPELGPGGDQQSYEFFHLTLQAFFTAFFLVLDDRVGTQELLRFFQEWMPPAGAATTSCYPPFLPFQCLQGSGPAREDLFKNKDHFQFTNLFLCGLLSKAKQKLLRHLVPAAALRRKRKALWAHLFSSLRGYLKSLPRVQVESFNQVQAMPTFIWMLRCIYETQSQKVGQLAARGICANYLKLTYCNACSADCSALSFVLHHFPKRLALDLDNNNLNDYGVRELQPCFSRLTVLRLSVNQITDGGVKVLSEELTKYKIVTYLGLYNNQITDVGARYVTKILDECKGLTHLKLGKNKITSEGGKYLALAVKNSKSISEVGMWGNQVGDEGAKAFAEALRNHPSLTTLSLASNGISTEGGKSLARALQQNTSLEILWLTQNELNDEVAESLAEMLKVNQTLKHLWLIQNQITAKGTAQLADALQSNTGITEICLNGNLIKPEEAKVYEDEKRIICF"}, "[4]": {"biological_target": "RAD23A (prey, CIC format) (human) (UniProt P54725)"}, "[5]": {"biological_target": "TCL1A (prey, CIC format) (human) (UniProt P56279)", "sequence (P56279 whole entry)": "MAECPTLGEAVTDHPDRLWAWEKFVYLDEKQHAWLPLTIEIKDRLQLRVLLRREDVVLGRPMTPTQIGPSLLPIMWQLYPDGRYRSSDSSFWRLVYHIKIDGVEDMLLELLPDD"}, "[6]": {"biological_target": "T4, LAT (prey, CIC format) (human) (UniProt O43561)", "T4 sequence (looked up)": "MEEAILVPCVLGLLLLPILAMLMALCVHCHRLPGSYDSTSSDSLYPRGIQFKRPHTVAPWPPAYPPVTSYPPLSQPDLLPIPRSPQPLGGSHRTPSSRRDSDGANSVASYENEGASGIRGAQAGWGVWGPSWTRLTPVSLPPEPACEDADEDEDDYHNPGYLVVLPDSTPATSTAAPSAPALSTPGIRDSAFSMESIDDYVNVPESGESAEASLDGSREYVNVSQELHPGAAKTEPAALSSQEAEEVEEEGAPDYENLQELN"}, "[7]": {"biological_target": "T5, PEX3 (prey, CIC format) (human) (UniProt P56589)", "T5 sequence (looked up)": "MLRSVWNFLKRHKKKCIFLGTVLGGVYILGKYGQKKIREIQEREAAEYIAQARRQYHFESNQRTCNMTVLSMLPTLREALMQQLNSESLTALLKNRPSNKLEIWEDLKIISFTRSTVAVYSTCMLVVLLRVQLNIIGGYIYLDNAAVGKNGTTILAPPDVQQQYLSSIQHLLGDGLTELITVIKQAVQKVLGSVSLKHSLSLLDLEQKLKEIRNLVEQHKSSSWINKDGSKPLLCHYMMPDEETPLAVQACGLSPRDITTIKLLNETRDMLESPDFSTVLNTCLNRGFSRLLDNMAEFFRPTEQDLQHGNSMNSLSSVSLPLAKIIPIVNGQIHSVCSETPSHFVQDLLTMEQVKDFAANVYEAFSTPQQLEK"}, "[8]": {"biological_target": "PTK2 (prey, CIC format) (human) (UniProt Q05397)", "sequence (Q05397 whole entry)": "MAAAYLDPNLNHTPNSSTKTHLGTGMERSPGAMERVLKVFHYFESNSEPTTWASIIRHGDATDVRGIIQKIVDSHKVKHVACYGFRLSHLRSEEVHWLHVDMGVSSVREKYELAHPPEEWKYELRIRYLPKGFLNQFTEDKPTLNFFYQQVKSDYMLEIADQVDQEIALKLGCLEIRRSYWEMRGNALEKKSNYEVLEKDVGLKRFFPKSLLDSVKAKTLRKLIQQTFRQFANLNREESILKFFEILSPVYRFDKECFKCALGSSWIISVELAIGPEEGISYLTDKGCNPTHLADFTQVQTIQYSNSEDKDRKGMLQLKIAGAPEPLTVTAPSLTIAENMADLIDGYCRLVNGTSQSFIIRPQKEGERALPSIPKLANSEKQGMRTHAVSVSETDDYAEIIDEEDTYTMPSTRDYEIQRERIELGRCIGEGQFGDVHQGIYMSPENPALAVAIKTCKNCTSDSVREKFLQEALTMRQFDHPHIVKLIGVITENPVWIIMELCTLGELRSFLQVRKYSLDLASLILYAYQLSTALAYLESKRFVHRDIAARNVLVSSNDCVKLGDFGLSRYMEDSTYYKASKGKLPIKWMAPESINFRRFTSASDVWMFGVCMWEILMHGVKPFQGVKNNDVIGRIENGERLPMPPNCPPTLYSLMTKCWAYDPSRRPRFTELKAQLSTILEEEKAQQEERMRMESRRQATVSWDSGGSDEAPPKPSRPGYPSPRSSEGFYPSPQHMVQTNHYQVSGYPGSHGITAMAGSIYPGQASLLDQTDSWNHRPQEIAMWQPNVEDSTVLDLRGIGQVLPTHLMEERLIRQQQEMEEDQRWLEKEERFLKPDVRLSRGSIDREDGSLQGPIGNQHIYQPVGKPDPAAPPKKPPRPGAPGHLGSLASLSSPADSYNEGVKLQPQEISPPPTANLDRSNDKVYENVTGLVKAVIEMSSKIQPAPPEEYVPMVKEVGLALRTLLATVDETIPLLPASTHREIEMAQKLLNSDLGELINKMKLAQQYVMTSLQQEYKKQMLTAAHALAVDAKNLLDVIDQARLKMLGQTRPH"}, "[9]": {"biological_target": "T6, VAV1 (prey, CIC format) (human) (UniProt P15498)", "T6 sequence (looked up)": "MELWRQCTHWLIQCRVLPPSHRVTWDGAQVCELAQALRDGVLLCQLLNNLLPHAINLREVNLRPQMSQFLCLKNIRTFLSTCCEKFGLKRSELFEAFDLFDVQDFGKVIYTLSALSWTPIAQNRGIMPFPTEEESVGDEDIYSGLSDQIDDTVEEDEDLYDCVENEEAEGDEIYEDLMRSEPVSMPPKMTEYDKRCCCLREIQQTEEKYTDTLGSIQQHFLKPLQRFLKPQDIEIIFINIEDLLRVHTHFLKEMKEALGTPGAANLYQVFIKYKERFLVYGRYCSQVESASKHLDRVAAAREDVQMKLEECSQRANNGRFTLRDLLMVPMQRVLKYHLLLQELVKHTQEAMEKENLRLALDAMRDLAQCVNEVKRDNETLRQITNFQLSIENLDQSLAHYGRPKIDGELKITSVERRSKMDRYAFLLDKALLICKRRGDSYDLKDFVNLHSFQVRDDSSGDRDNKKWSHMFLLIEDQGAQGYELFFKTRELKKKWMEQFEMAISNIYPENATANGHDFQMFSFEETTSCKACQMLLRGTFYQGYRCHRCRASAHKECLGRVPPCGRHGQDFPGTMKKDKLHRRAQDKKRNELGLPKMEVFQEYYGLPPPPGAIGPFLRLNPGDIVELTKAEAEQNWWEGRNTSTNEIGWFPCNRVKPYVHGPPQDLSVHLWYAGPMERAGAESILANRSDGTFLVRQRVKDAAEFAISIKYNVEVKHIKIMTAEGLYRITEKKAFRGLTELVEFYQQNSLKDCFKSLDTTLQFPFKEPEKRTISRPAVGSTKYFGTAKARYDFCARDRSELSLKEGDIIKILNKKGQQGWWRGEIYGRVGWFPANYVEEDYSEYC"}, "[10]": {"biological_target": "FGFR1 (prey, CIC format) (human) (UniProt P11362)", "sequence (P11362 22-822 limits assumed)": "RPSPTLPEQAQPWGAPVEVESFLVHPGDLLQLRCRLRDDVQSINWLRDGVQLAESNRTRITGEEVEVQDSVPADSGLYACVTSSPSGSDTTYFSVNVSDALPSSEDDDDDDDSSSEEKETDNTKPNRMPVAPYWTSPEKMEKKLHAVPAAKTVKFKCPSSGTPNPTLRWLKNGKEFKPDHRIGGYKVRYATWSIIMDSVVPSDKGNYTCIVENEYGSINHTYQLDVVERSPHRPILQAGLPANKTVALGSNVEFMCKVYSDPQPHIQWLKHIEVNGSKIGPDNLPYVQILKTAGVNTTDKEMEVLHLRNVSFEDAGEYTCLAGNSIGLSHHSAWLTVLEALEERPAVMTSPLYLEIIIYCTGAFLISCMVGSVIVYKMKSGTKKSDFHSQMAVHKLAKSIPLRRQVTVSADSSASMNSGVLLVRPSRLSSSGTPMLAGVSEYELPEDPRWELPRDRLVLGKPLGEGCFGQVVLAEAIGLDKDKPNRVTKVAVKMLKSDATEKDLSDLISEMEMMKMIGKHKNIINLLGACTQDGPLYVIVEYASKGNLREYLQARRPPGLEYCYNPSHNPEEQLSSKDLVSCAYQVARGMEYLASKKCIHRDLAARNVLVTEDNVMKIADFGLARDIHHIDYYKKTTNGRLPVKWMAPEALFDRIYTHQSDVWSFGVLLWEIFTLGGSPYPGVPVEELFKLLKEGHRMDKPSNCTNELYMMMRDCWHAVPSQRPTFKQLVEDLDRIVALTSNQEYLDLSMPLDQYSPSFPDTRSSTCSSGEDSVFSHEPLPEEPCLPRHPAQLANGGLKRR"}, "[11]": {"biological_target": "LGALS3BP (prey, CIC format) (human) (UniProt Q08380)", "sequence (Q08380 19-585 limits assumed)": "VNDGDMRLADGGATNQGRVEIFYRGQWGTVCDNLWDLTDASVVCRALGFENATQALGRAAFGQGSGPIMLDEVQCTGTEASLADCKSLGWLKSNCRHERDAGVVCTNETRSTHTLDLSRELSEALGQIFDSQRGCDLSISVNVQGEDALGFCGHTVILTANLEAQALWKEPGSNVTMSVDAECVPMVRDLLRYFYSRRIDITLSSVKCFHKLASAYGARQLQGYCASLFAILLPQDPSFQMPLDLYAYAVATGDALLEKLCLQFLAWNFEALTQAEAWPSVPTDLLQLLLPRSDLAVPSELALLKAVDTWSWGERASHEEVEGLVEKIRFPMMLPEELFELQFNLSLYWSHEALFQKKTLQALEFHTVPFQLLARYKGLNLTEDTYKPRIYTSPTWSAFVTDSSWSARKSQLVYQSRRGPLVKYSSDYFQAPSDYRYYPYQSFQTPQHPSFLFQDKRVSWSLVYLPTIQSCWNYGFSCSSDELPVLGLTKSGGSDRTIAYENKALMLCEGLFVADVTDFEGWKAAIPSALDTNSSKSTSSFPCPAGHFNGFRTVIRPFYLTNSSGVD"}, "[12]": {"biological_target": "LSM2 (prey, CIC format) (human) (UniProt Q9Y333)", "sequence (Q9Y333 whole entry)": "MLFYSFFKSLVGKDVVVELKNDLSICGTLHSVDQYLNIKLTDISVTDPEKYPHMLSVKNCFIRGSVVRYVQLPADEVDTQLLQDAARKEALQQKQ"}, "[13]": {"biological_target": "PDGFRB (prey, CIC format) (human) (UniProt P09619)"}, "[14]": {"biological_target": "UBE2I (prey, CIC format) (human) (UniProt P63279)", "sequence (P63279 whole entry)": "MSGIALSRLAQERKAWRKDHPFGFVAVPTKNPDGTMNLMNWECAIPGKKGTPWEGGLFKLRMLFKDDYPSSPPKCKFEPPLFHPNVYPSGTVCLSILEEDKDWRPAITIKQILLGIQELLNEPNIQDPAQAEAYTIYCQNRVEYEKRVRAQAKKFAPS"}, "[15]": {"biological_target": "CRADD (prey, CIC format) (human) (UniProt P78560)", "sequence (P78560 whole entry)": "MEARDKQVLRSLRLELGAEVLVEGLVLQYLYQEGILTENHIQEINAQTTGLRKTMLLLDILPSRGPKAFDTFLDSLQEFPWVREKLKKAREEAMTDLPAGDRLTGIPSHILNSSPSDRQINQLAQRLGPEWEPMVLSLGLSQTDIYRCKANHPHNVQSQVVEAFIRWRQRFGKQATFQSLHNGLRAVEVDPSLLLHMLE"}, "[16]": {"biological_target": "NCK1 (prey, CIC format) (human) (UniProt P16333)"}, "[17]": {"biological_target": "S100A7 (prey, CIC format) (human) (UniProt P31151)", "sequence (P31151 whole entry)": "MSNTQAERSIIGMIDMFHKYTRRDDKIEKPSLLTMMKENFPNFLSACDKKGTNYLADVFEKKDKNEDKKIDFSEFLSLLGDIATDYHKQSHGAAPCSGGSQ"}, "[18]": {"biological_target": "GRB2 (prey, CIC format) (human) (UniProt P62993)", "sequence (P62993 whole entry)": "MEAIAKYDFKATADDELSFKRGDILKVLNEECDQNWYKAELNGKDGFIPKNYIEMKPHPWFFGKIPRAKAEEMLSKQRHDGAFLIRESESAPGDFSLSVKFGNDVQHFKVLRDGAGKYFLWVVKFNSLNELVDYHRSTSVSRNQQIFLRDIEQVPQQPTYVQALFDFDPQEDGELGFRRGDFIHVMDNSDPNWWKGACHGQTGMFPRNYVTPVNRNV"}, "[19]": {"biological_target": "SMAD4 (prey, CIC format) (human) (UniProt Q13485)", "sequence (Q13485 whole entry)": "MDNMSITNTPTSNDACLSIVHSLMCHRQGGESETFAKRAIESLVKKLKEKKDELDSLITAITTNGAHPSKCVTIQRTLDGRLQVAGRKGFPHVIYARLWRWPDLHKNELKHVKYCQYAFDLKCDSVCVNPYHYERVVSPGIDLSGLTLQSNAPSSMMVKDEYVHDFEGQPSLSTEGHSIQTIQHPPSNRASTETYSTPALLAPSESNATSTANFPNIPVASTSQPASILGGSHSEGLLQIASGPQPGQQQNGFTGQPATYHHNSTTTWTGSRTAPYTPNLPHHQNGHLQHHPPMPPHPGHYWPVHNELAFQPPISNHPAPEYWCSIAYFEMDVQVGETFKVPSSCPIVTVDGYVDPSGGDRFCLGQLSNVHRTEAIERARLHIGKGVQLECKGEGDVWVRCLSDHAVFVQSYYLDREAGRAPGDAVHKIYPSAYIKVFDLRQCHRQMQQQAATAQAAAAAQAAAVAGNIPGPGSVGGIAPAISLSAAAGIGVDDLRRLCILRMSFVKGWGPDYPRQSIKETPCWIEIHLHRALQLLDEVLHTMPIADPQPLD"}, "[20]": {"biological_target": "CD58 (prey, CIC format) (human) (UniProt P19256)", "sequence (P19256 29-250 limits assumed)": "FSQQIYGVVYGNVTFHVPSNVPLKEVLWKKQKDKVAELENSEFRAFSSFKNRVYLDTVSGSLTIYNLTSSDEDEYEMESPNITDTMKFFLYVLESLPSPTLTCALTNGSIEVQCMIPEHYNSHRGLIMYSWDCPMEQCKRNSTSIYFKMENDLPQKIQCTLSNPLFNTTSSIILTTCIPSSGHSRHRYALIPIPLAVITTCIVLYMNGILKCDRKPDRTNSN"}, "[21]": {"biological_target": "GTF2F2 (prey, CIC format) (human) (UniProt P13984)", "sequence (P13984 whole entry)": "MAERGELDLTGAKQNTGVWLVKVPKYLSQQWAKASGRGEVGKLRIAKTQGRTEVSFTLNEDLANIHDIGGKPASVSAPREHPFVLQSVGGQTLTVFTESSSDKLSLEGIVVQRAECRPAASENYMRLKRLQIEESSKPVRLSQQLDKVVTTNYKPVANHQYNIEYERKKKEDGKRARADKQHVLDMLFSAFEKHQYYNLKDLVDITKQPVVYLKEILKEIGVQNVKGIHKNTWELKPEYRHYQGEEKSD"}, "[22]": {"biological_target": "HGS (prey, CIC format) (human) (UniProt O14964)"}, "[23]": {"biological_target": "RPA3 (prey, CIC format) (human) (UniProt P35244)"}, "[24]": {"biological_target": "EZR (prey, CIC format) (human) (UniProt P15311)", "sequence (P15311 whole entry)": "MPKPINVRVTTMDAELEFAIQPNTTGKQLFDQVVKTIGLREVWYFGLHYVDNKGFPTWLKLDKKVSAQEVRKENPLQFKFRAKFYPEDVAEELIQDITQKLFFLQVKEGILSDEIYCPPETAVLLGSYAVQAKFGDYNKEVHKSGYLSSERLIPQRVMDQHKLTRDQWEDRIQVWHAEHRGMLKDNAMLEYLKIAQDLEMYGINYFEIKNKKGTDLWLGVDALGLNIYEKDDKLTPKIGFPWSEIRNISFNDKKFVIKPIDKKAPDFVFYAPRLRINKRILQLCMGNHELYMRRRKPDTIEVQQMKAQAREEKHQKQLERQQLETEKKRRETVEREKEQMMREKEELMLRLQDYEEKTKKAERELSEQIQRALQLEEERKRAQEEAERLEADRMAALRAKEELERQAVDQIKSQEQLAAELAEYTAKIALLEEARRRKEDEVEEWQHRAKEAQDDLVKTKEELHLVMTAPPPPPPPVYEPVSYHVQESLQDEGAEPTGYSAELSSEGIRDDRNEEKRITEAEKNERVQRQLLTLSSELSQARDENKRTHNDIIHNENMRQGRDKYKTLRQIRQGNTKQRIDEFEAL"}, "[25]": {"biological_target": "SRC (prey, CIC format) (human) (UniProt P12931)"}}}
{"substance": "PEX14 (bait, IN format) (from UniProt O75381 1-377)", "values": [{"measurement": "PLU mean", "setting": "[1]", "value": 0.31}, {"measurement": "PLU mean", "setting": "[2]", "value": 2.17}]}
{"substance": "PSMD4 (bait, IN format) (from UniProt P55036 1-377)", "values": [{"measurement": "PLU mean", "setting": "[3]", "value": 0.845}, {"measurement": "PLU mean", "setting": "[4]", "value": 0.919}, {"measurement": "PLU mean", "setting": "[5]", "value": 0.108}]}
{"substance": "GRB2 (bait, IN format) (from UniProt P62993 1-217)", "values": [{"measurement": "PLU mean", "setting": "[6]", "value": 0.223}, {"measurement": "PLU mean", "setting": "[7]", "value": 0.0588}, {"measurement": "PLU mean", "setting": "[8]", "value": 0.741}, {"measurement": "PLU mean", "setting": "[9]", "value": 1.39}]}
{"substance": "LSM3 (bait, IN format) (from UniProt P62310 1-102)", "values": [{"measurement": "PLU mean", "setting": "[10]", "value": 0.272}, {"measurement": "PLU mean", "setting": "[11]", "value": 0.129}, {"measurement": "PLU mean", "setting": "[12]", "value": 3.03}]}
{"substance": "CRK (bait, IN format) (from UniProt P46108 1-304)", "values": [{"measurement": "PLU mean", "setting": "[13]", "value": 0.261}, {"measurement": "PLU mean", "setting": "[14]", "value": 0.153}]}
{"substance": "LCP2 (bait, IN format) (from UniProt Q13094 1-533)", "values": [{"measurement": "PLU mean", "setting": "[15]", "value": 0.193}, {"measurement": "PLU mean", "setting": "[16]", "value": 0.662}, {"measurement": "PLU mean", "setting": "[9]", "value": 0.789}]}
{"substance": "LGALS3 (bait, IN format) (from UniProt P17931 1-250)", "values": [{"measurement": "PLU mean", "setting": "[11]", "value": 0.248}, {"measurement": "PLU mean", "setting": "[12]", "value": 0.162}]}
{"substance": "FABP5 (bait, IN format) (from UniProt Q01469 1-135)", "values": [{"measurement": "PLU mean", "setting": "[8]", "value": 0.174}, {"measurement": "PLU mean", "setting": "[17]", "value": 0.134}]}
{"substance": "SMAD1 (bait, IN format) (from UniProt Q15797 1-465)", "values": [{"measurement": "PLU mean", "setting": "[18]", "value": 0.151}, {"measurement": "PLU mean", "setting": "[19]", "value": 0.182}]}
{"substance": "CD2 (bait, IN format) (from UniProt P06729 25-351) (receptor)", "values": [{"measurement": "PLU mean", "setting": "[20]", "value": 0.972}, {"measurement": "PLU mean", "setting": "[21]", "value": 0.299}, {"measurement": "PLU mean", "setting": "[22]", "value": 0.253}]}
{"substance": "RPA2 (bait, IN format) (from UniProt P15927 1-270)", "values": [{"measurement": "PLU mean", "setting": "[23]", "value": 2.72}, {"measurement": "PLU mean", "setting": "[17]", "value": 0.0606}]}
{"substance": "TP53 (bait, IN format) (from UniProt P04637 1-393)", "values": [{"measurement": "PLU mean", "setting": "[14]", "value": 0.194}]}
{"substance": "PRKAR2A (bait, IN format) (from UniProt P13861 1-404)", "values": [{"measurement": "PLU mean", "setting": "[24]", "value": 0.123}, {"measurement": "PLU mean", "setting": "[25]", "value": 0.186}]}
{"substance": "CASP2 (bait, IN format) (from UniProt P42575 1-452)", "values": [{"measurement": "PLU mean", "setting": "[15]", "value": 2.45}, {"measurement": "PLU mean", "setting": "[9]", "value": 0.696}]}
